{"source": "paper PMC8515877", "origin": "cited, not measured here", "target": "GnRH receptor (Mus musculus) (UniProt Q01776)", "sequence (Q01776 whole entry)": "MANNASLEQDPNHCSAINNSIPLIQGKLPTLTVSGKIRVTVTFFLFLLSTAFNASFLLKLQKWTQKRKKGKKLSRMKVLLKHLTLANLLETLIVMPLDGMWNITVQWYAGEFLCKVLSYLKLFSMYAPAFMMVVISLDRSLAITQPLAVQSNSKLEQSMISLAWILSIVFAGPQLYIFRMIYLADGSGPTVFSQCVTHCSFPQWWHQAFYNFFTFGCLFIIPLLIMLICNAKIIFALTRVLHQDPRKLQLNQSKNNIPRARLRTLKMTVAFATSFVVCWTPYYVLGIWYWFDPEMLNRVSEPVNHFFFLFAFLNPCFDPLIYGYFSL"}
{"substance": "GnRH (from UniProt P13562)", "values": [{"measurement": "Kd", "result": 1.4, "unit": "nM"}]}
